Experimental findings from patent US20200002414A1 (published 2020) are described below.

Experiment [1] deals with T1, human Ror2 (human, UniProt Q01974 34-403, limits assumed).
T1 construct: also called hROR2; receptor tyrosine kinase-like orphan receptor 2
Nature of the experiment: ELISA, human Ror2, pH 6.0.

Experiment [2] has as its target T1, human Ror2. Description: ELISA, human Ror2; ratio of signal at pH 6.0 to pH 7.4.
The target of experiment [3] is T1, human Ror2. Nature of the experiment: ELISA, human Ror2, pH 7.4.

T1 sequence (Q01974 34-403 limits assumed): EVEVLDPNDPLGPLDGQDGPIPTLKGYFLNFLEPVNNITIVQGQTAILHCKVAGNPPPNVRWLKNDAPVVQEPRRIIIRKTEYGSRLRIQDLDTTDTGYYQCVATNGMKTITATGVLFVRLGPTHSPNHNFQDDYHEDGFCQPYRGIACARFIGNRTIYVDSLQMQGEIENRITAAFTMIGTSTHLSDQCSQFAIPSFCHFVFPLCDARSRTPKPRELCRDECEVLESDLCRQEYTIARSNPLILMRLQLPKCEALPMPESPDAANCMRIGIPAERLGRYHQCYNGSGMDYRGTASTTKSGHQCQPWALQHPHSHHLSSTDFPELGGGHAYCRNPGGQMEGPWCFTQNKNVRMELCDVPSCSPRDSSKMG

B1: HC-T033C (antibody, V domains shown)
VH: EVQLQQSGPELVKPGASVKISCKTSGYTFTEYCMHWMKQSHRKSLEWIGGINTNNGGTGYNQKFKGKATLTVDKSSSTAYMELRSLTSEDSAVYFCARGSLYSYGNSYFDYWGQGTLVTVSS
VL: QIVLTQSPAIMSASPGEKVTITCSATSSVSYMHWFQQKPGTSPKLWIYGTSNLASGVPARFSGSGSGTSYSLTISRMEAEDAATYYCQQRSSYPFTFGQGTKVEIK
Regarding B1, the “Affinity ELISA pH 6.0” value with human Ror2 [1] is 0.626. Besides, the “ratio, pH 6.0/7.4” value with human Ror2 [2] is 2.7. Also, the “Affinity ELISA pH 7.4” value in the experiment with human Ror2 [3] is 0.232.

B2: HC-M034D (antibody, V domains shown)
VH: EVQLQQSGPELVKPGASVKISCKTSGYTFTEYTDHWMKQSHRKSLEWIGGINTNNGGTGYNQKFKGKATLTVDKSSSTAYMELRSLTSEDSAVYFCARGSLYSYGNSYFDYWGQGTLVTVSS
VL: QIVLTQSPAIMSASPGEKVTITCSATSSVSYMHWFQQKPGTSPKLWIYGTSNLASGVPARFSGSGSGTSYSLTISRMEAEDAATYYCQQRSSYPFTFGQGTKVEIK
Consider B2, for which the “Affinity ELISA pH 6.0” value with human Ror2 [1] stood at 1.24. For the same molecule, the “ratio, pH 6.0/7.4” value in the experiment with human Ror2 [2] was found to be 5.9. In the experiment with human Ror2 [3], the “Affinity ELISA pH 7.4” value is 0.211.

B3: HC-N052C (antibody, V domains shown)
VH: EVQLQQSGPELVKPGASVKISCKTSGYTFTEYTMHWMKQSHRKSLEWIGGICTNNGGTGYNQKFKGKATLTVDKSSSTAYMELRSLTSEDSAVYFCARGSLYSYGNSYFDYWGQGTLVTVSS
VL: QIVLTQSPAIMSASPGEKVTITCSATSSVSYMHWFQQKPGTSPKLWIYGTSNLASGVPARFSGSGSGTSYSLTISRMEAEDAATYYCQQRSSYPFTFGQGTKVEIK
For B3, the “Affinity ELISA pH 6.0” value with human Ror2 [1] was 0.995. Moreover, the “ratio, pH 6.0/7.4” value with human Ror2 [2] is 2.31. For the same molecule, in the experiment with human Ror2 [3], the “Affinity ELISA pH 7.4” value came out at 0.431.

B4: HC-M034Y (antibody, V domains shown)
VH: EVQLQQSGPELVKPGASVKISCKTSGYTFTEYTYHWMKQSHRKSLEWIGGINTNNGGTGYNQKFKGKATLTVDKSSSTAYMELRSLTSEDSAVYFCARGSLYSYGNSYFDYWGQGTLVTVSS
VL: QIVLTQSPAIMSASPGEKVTITCSATSSVSYMHWFQQKPGTSPKLWIYGTSNLASGVPARFSGSGSGTSYSLTISRMEAEDAATYYCQQRSSYPFTFGQGTKVEIK
On to B4, for which the “Affinity ELISA pH 6.0” value with human Ror2 [1] is 0.903. Moreover, the “ratio, pH 6.0/7.4” value with human Ror2 [2] came to 2.31. In addition, in the experiment with human Ror2 [3], the “Affinity ELISA pH 7.4” value stood at 0.391.

B5: HC-M034E (antibody, V domains shown)
VH: EVQLQQSGPELVKPGASVKISCKTSGYTFTEYTEHWMKQSHRKSLEWIGGINTNNGGTGYNQKFKGKATLTVDKSSSTAYMELRSLTSEDSAVYFCARGSLYSYGNSYFDYWGQGTLVTVSS
VL: QIVLTQSPAIMSASPGEKVTITCSATSSVSYMHWFQQKPGTSPKLWIYGTSNLASGVPARFSGSGSGTSYSLTISRMEAEDAATYYCQQRSSYPFTFGQGTKVEIK
Regarding B5, the “Affinity ELISA pH 6.0” value with human Ror2 [1] was 1.17. Besides, in the experiment with human Ror2 [2], the “ratio, pH 6.0/7.4” value was 6.3. In addition, the “Affinity ELISA pH 7.4” value with human Ror2 [3] is 0.185.

B6: HC-I051E (antibody, V domains shown)
VH: EVQLQQSGPELVKPGASVKISCKTSGYTFTEYTMHWMKQSHRKSLEWIGGENTNNGGTGYNQKFKGKATLTVDKSSSTAYMELRSLTSEDSAVYFCARGSLYSYGNSYFDYWGQGTLVTVSS
VL: QIVLTQSPAIMSASPGEKVTITCSATSSVSYMHWFQQKPGTSPKLWIYGTSNLASGVPARFSGSGSGTSYSLTISRMEAEDAATYYCQQRSSYPFTFGQGTKVEIK
Regarding B6, the “Affinity ELISA pH 6.0” value with human Ror2 [1] was determined as 1.04. Also, in the experiment with human Ror2 [2], the “ratio, pH 6.0/7.4” value amounted to 10.4. Also, the “Affinity ELISA pH 7.4” value in the experiment with human Ror2 [3] came to 0.1.

B7: HC-G050S (antibody, V domains shown)
VH: EVQLQQSGPELVKPGASVKISCKTSGYTFTEYTMHWMKQSHRKSLEWIGSINTNNGGTGYNQKFKGKATLTVDKSSSTAYMELRSLTSEDSAVYFCARGSLYSYGNSYFDYWGQGTLVTVSS
VL: QIVLTQSPAIMSASPGEKVTITCSATSSVSYMHWFQQKPGTSPKLWIYGTSNLASGVPARFSGSGSGTSYSLTISRMEAEDAATYYCQQRSSYPFTFGQGTKVEIK
As to B7, the “Affinity ELISA pH 6.0” value with human Ror2 [1] was found to be 0.823. Moreover, in the experiment with human Ror2 [2], the “ratio, pH 6.0/7.4” value turned out to be 2.6. The “Affinity ELISA pH 7.4” value in the experiment with human Ror2 [3] came out at 0.318.
